Measured values reported in IntAct's records for PubMed 25752543.

B1: Neuropilin-2 (Homo sapiens), O60462 (parent)
chain: MDMFPLTWVFLALYFSRHQVRGQPDPPCGGRLNSKDAGYITSPGYPQDYPSHQNCEWIVYAPEPNQKIVLNFNPHFEIEKHDCKYDFIEIRDGDSESADLLGKHCGNIAPPTIISSGSMLYIKFTSDYARQGAGFSLRYEIFKTGSEDCSKNFTSPNGTIESPGFPEKYPHNLDCTFTILAKPKMEIILQFLIFDLEHDPLQVGEGDCKYDWLDIWDGIPHVGPLIGKYCGTKTPSELRSSTGILSLTFHTDMAVAKDGFSARYYLVHQEPLENFQCNVPLGMESGRIANEQISASSTYSDGRWTPQQSRLHGDDNGWTPNLDSNKEYLQVDLRFLTMLTAIATQGAISRETQNGYYVKSYKLEVSTNGEDWMVYRHGKNHKVFQANNDATEVVLNKLHAPLLTRFVRIRPQTWHSGIALRLELFGCRVTDAPCSNMLGMLSGLIADSQISASSTQEYLWSPSAARLVSSRSGWFPRIPQAQPGEEWLQVDLGTPKTVKGVIIQGARGGDSITAVEARAFVRKFKVSYSLNGKDWEYIQDPRTQQPKLFEGNMHYDTPDIRRFDPIPAQYVRVYPERWSPAGIGMRLEVLGCDWTDSKPTVETLGPTVKSEETTTPYPTEEEATECGENCSFEDDKDLQLPSGFNCNFDFLEEPCGWMYDHAKWLRTTWASSSSPNDRTFPDDRNFLRLQSDSQREGQYARLISPPVHLPRSPVCMEFQYQATGGRGVALQVVREASQESKLLWVIREDQGGEWKHGRIILPSYDMEYQIVFEGVIGKGRSGEIAIDDIRISTDVPLENCMEPISAFAGENFKVDIPEIHEREGYEDEIDDEYEVDWSNSSSATSGSGAPSTDKEKSWLYTLDPILITIIAMSSLGVLLGATCAGLLLYCTCSYSGLSSRSCTTLENYNFELYDGLKHKVKMNHQKCCSEA
partner: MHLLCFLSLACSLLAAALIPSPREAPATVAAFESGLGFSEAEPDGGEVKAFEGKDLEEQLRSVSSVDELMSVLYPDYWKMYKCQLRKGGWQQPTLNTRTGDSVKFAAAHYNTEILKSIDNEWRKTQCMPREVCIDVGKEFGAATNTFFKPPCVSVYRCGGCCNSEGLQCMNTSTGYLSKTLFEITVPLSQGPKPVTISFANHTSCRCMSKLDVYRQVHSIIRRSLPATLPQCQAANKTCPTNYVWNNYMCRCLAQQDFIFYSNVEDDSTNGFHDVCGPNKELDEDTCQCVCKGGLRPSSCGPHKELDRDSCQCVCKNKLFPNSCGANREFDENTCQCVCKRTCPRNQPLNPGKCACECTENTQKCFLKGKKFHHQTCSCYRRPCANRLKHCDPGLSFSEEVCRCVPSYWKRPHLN
B2: Vascular endothelial growth factor C (Mus musculus), P97953-1 (parent)
chain: B1 partner
partner: B1 chain

Variants of: B1
Conditions: with Vegfc

Row | Variant | effect of a mutation on the interaction
1 | T319R | disrupting interaction strength

Variants of: B2
Conditions: with nrp2_human NRP2, O60462

Row | Variant | effect of a mutation on the interaction
2 | MHLLCFLSLACSLLAAALIPSPREAPATVAAFESGLGFSEAEPDGGEVKAFEGKDLEEQLRSVSSVDELMSVLYPDYWKMYKCQLRKGGWQQPTLNTRTGDSVKFAAAHYNTEILKSIDNEWRKTQCMPREVCIDVGKEFGAATNTFFKPPCVSVYRCGGCCNSEGLQCMNTSTGYLSKTLFEITVPLSQGPKPVTISFANHTSCRCMSKLDVYRQVHSIIRESLPATLPQCQAANKTCPTNYVWNNYMCRCLAQQDFIFYSNVEDDSTNGFHDVCGPNKELDEDTCQCVCKGGLRPSSCGPHKELDRDSCQCVCKNKLFPNSCGANREFDENTCQCVCKRTCPRNQPLNPGKCACECTENTQKCFLKGKKFHHQTCSCYRRPCANRLKHCDPGLSFSEEVCRCVPSYWKRPHLN [R223E] | decreasing interaction strength
